The series is described as follows: soluble on expression in E. coli; label from the status in PepcDB or PDB records.
As for “MSLGYDVIFVSGVAKARFRRRMRKLVLCITALLLSGCSREFIEKIYDVDYEPTNRFAKNLAELPGQFQKDTAALDALINSFSGNIEKRWGRRELKIAGKNNYVKYIDNYLSRSEVNFTEGRIIVETVSPIDPKAHLRNAIITTLLTPDDPAHVDLFSSKDIELKGQPFLYQQVLDQDGQPIQWSWRANRYADYLIANHLKVKQVDFKKAYYVEIPMVKDQIDIRGYKYASIVRKASRKYDIPEDLIYAIIKTESSFNPYAVSWANAYGLMQVVPKTAGRDVFKLVKNRSGEPSPEYLFNPENNIDTGTAYFYILKNRYLKEVRHPTSLEYSMISAYNGGTGGVLSTFSSDRQRAMRDLNALQPNQVYWALTKKHPNAEARRYLEKVTKFKKEFNAGEGHHHHHH”, the “soluble on expression in E. coli” value is given as “not soluble”.

Regarding “MGSDKIHHHHHHMNATQTQMRREINEIPDAVERLLTEGAGAVAATAADIRDLQPSYLLSVARGSSDHASTYLKYASELLLGLPMASVGPSVKSIYGVDLHCKGALSISVSQSGKSPDIVQLTSAFRDKGAYTVAITNDAGSPLAETAAAVLPIHAGPELSVAATKTFVTSLVAGLWVLAEVKQDAALLEAILRLPGHLAKAKDCDWSAAIEAIDGQSLYTLGRGPSWAISNEAALKFKETCQIHAESYSAAEVLHGPVSIVGENFPVIAFAAADAAEESVGEMVAALGDKGARVFATTHKAKGAEVLPHVRTDHWITDPIASIVSFYGMVEAVAARRGVNPDAPRHLNKVTETV”, the “soluble on expression in E. coli” value is on record as “not soluble”.

For the sequence “MWESKFVKEGLTFDDVLLVPAKSDVLPREVSVKTVLSESLQLNIPLISAGMDTVTEADMAIAMARQGGLGIIHKNMSIEQQAEQVDKVKRSESGVISDPFFLTPEHQVYDAEHLMGKYRISGVPVVNNLDERKLVGIITNRDMRFIQDYSIKISDVMTKEQLITAPVGTTLSEAEKILQKYKIEKLPLVDNNGVLQGLITIKDIEKVIEFPNSAKDKQGRLLVGAAVGVTADAMTRIDALVKASVDAIVLDTAHGHSQGVIDKVKEVRAKYPSLNIIAGNVATAEATKALIEAGANVVKVGIGPGSICTTRVVAGVGVPQLTAVYDCATEARKHGIPVIADGGIKYSGDMVKALAAGAHVVMLGSMFAGVAESPGETEIYQGRQFKVYRGMGSVGAMEKGSKDRYFQEGNKKLVPEGIEGRVPYKGPLADTVHQLVGGLRAGMGYCGAQDLEFLRENAQFIRMSGAGLLESHPHHVQITKEAPNYSL”, the “soluble on expression in E. coli” value is recorded as “not soluble”.

On to “MENLTVTGLVRLIGAGATMIYVVTDNERRTEQIATQAAARLKGAGSPYVWTCTEGFSRDGAVVEGIDDPVAAVGFALAQPGPLLFLFKDLPWFWGDNPYLIRALKDFAMRAKAKAIVVLGQQEGIPAALREEFVILQQGLPAMEEIKAFFEQARARDPQLAQACQERPGLLNDLVVAAQGLDLLDVERGMRGARAAGEAGGEGLVRSIFETKRAIIRTGGIMEFVANDVTPDQVGGMENLKQWMARREQAFGLEGISSGANLPKGVLMMGIAGCGKSLFVKAIAATWRLPLIRLDMAAVYDGSYGTPESSLRKAFRTAEAVAPCVLWIDEIEAGISTQGFKAEGGPASRILGSFLTWMQEKRAPVFVAATANAIEMLPAEIIRKGRFDEIFYIGLPETKGREEIFRIHLTRRKIGLSAFDVPLLAGSTKGFSGAEIEQAVQAAAFEALTGKRPMTQQDLMAAISRTVPLSVTMAEQIKKIEAWAFKRAVPA”, for which the “soluble on expression in E. coli” value is “soluble”.

With “MGSDKIHHHHHHMKISPLCPSCLLGRVYYEAKLVTDDEDLISQCVDESLKILAENYSSRPINAHLATRIHRRVYEILGVEDPYAEVKARANEVARQVLPLAKEIVEGSDDPFKTAVIVSIVGNNFDYGVQGHKVVEEEFRDFLKRKVQEGLKINDTERIKELSSGKVVYLTDNAGEIFFDTLLMKEIKRRCEKLTAVVRGRPIISDATIEDARLARVDKIADELLTNGKGAIGIIMDELPDETRKALEEADLIVAKGMANYECLSDGSLKPIAFLLTAKCEPVARDIGVNVGDMVAKVVE”, the “soluble on expression in E. coli” value is “soluble”.

Regarding “MTQANLSETLFKPRFKHTETSTLVRRFNRGSQPPMQSALDGKNVPHWYRMINRLMWIWRGVDPREILDVQARIVMSDAERTDDDLYDTVIGYRGGNWIYEWAKQAMDWQQKACQEQDAMRSGRYWLHASTLYNIAAYPHLKGDELAEQAQALANRAYEEAAQRLPGSLREMEFAVPGGSPVTAFLHMPKGDGPFPTVLMCGGLDAMQTDYYTLYERYFAPRGIAMLTLDMPSVGFSSKWKLTQDSSLLHQHVLKALPNVPWVDHTRVAAFGFRFGANVAVRLAYLEAPRLKAVACLGPVVHALLSDPQRQSTVPEMYLDVLASRLGMHDASDEALRVELNRYSLKVQGLLGRRCPTPMLSGFWKNDPFSPEEESRLITTSSSDGKLIEIPFNPVYRNFDRALQEITDWINHRLC”, the “soluble on expression in E. coli” value was “not soluble”.

Consider “MAFVTTAEVCDANQELIRSGQLRALQPIFQIYGRRQIFSGPVVTVKVFEDNGLIRQFIEEKGNGRVLVVDGGGSQRCAILGGNPVVQAQNNGWAGIVVNGCIRDVDEINGCDIGVRALASHPIKASKKGLGEQRVPVNIAGTRICDGEWLYADTDGILVSQIELSV”, for which the “soluble on expression in E. coli” value is listed as “soluble”.

On to “MAQQKKTIAVVGATGRQGASLIRVAAAVGHHVRAQVHSLKGLIAEELQAIPNVTLFQGPLLNNVPLMDTLFEGAHLAFINTTSQAGDEIAIGKDLADAAKRAGTIQHYIYSSMPDHSLYGPWPAVPMWAPKFTVENYVRQLGLPSTFVYAGIYNNNFTSLPYPLFQMELMPDGTFEWHAPFDPDIPLPWLDAEHDVGPALLQIFKDGPQKWNGHRIALTFETLSPVQVCAAFSRALNRRVTYVQVPKVEIKVNIPVGYREQLEAIEVVFGEHKAPYFPLPEFSRPAAGSPKGLGPANGKGAGAGMMQGPGGVISQRVTDEARKLWSGWRDMEEYAREVFPIEEEANGLDWML”, for which the “soluble on expression in E. coli” value was “soluble”.

In the case of “MGSDKIHHHHHHMNQTLRIGSGAAWWGDRVEPAALNAEHGALDYLCFETMAEATVSAAQVRLRRDSSFAGYDTYLDERMRAVLPACMRHGTRIISNQGWINPTGAAERIVQLLRDAGQHGVRVAAVCGSLITDRVLELADRVLENGAPVRSLAPDLISAEVYLGAEPIVAALRAGAQIVVTGRVADPSIFLAPMMHGFGWDPLDHERVGAGSAIGHLLECGAQVTGGYFCDPGFKELPEPWNFAFPIAEVQSDGTAVITKVAGSGGGVTLQTVKEQMLYEVHDPANYLTPDVVVDFTQARLEQIGPDRVRVTGLTGKPRTPTLKVTIGCAEGFIGEDMFFYAGPGALRRAQWARKILQERFRIVQLQAEELRIDFLGLNAIHGAATPADAVEPYEVAVRVAARTKTRAEAAKVGREVDGMAVSGIAHTGKRVPHQERWREVIGLWSALVPREAVPAHICYFES”, the “soluble on expression in E. coli” value is reported as “not soluble”.

As to “MSELFSNDNIFLNVNVNSQNEAIEKAGKALVDSGAVTDAYIQAMKDREQVVSTFMGNGLAIPHGTDEAKTNVIHSGLTLLQIPEGVDWDGEVVKVVVGIAGKDGEHLDLLSKIAITFSEEENVDRIVQAKSAEEIKQVFEEADA”, the “soluble on expression in E. coli” value is recorded as “not soluble”.

In the case of “MRKNILIFSLIAFSLTIHCSEIRVQRSLEESITKDYDQDGVYSSYEKALRRTQESVYVTLPEKRGYWYTMLDRIKAEEKELIPDEKVRMRKR”, the “soluble on expression in E. coli” value is given as “not soluble”.

As for “LTPIVGPSNFRVQVAADMDFSQVEETREILDNAPVVRNEHTIQNNSIDQIALGVPGSLSNQPPVTGEAATNDSQNTNARSEVNRQYAVGSSVRRTQYQQGQIEKLSVSVLLNSKASPDGVAWSDADKAQISTMITDAVGISAARGDSLSLMSFNF”, the “soluble on expression in E. coli” value is “not soluble”.

Turning to “MSLKQIIDNVEVYILTGPKEKRPHWVSHFIVPTANELLVKIKTKQGLEGFGIATNYSDINPVIEVFKTDFLDNFIGMDATCPEVIYEKIFNLTSQKLSFEKKWGKEPLIRISAAIDIACWDLIGKASGFPLYKLFGGYRDKVPCYVTCAYYRDGKDNKELKDEIEMLVGQGHQGFKGKVGGLSLREDLERMNIIRDVIGDEKSLMIDVNRAWDLKTASEAVNLLKPINPFWLEEPVRWADDRRELKLLSQKTEIPISGGESELTIYGCRSMLEEQAIQILQFDCTMFGGFTAGKKLSALCEVNHVDIAPHHDCFIHAHIVAGSPSGLIVESFTDPERDPLQAELFTNPPKIENGWLYLNEEPGLGLNLSNDALAKFGNKILEGHHHHHH”, the “soluble on expression in E. coli” value is listed as “soluble”.

As to “MSREQAILVGCQLAGVDDERFRYSMEELVSLVATANGEVVAEVTQKREAPHPATYIGKGKTEELAAIVKQLEPDVVIFNSELSPSQARNLTKMLGEVKVIDRT”, the “soluble on expression in E. coli” value is recorded as “not soluble”.

Values taken from the DeepSol protein solubility set.
